This data set can be described thus: yeast display, Sf9 membrane polyspecificity reagent, FACS + sequencing; frameworks hold sequencing errors. Summed up: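 Polyreactivity labels are assigned by the sorting gate from which each nanobody was recovered. The gates were low and high (top ~1%), set on anti-HA fluorescence for expression and streptavidin fluorescence for reagent binding. Before sorting, galactose-induced (36–48 hours) yeast display cells were stained for 1 hour at 4 °C with 10% biotinylated, detergent-solubilized Sf9 membrane reagent.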
“QVQLVESGGGLFQAGGSLRLSSAASGFTFWYYAMGWYRQAPGKERELVASISRTGGTTYYADSVKGRFKISRDIAKNTVYLQMNSLKPEDTAVYYCAARRQARRYWEGDYWCQGTQVTVSS”: the “polyreactivity (PSR sort gate)” value was “high polyreactivity”.

Regarding “QVQLVESGGGLVQAGGRLRISCAASGRIFTYNTLGWSRQEPGKERELVAAIRTGGSTNYADSVKGRFTISRDNAKITVNLQMNSLKPEDTAVSYCNTVRHSTSDYWYDFWGQGTQVTLSS”, the “polyreactivity (PSR sort gate)” value is given as “low polyreactivity”.

Regarding “QDQLVESGGGLVQAGGSLRLSCAASGFNFRYYAMGWYRQAPGKERELVAAISSGGRTSYADSVKGRFTISRDNAKNTVYLQMNSLKPEDTAVYYCAADRWRGLFYYGNDYWGQGTQVTVSS”, the “polyreactivity (PSR sort gate)” value is reported as “high polyreactivity”.

As to “QDQLVDSGGGLLQAGGSLRLSCAASGSTFHPYAMGWYRQAPGKERELVAAITFSGGSTYADSVKGRFTISRDNAKNTVYIQMNSLKPEDTAVYYCAAEWWYWRGWRDYWGQGTQVTVSS”, the “polyreactivity (PSR sort gate)” value is recorded as “low polyreactivity”.

As to “QDQLVESGGGLVQAGGSLRLSCAASGRIFRYYTRGWYRQAPGKERELVAAIRWSGSTTYYADSVKGRFTISRDYAKNTVYLLMNSLKPEDTAVYYCDARWSYPRWEFDYWGQGTQVTVSS”, the “polyreactivity (PSR sort gate)” value was “high polyreactivity”.

Consider “QVHLVESGGGLVQAGGSLRLSCHASGSNFYSYGLGSYRQAPGKERELVAAITSSGGGTYYADSVKGGFTISRDNAKNTVYLQMHSLKPEDTAVYYCNADHFSDNSSTQYDYWGQGTQVTVSS”, for which the “polyreactivity (PSR sort gate)” value was “low polyreactivity”.

For “QVQLVESGGGLVQAGGSLRLSCAASGFIFYSYGMGWYRQAPGKERELVASITSSGTRTYYADSVKGRFTISRDNAKHTVYLQMNSLKPEDTAVYYCAASRFYYGIAYYRYDYWGQGTHVTVSS”, the “polyreactivity (PSR sort gate)” value is “high polyreactivity”.

As to “QVQLVESVGGLVQAGGRLRLSCAASAFIFTSYAMGLYRQAPGKDRELVAAISKRGGSTYYADSVKGRFTISRDYAKNTDYLQMHSLKPEDTAVYYCATRYPQPYSPGYSYDYWGQGTQVTVSS”, the “polyreactivity (PSR sort gate)” value is reported as “high polyreactivity”.

Consider “QVQLVESGGGLVQAGGSLRLSCAASRSTFPRYAMGWSRQAPGKERELVAAISSSGRTYYADSVKGRFTISRDNAKNTVYLQMNSLKPEDTAVYYCNAPVARGEASYYWGQGTEVTVSS”, for which the “polyreactivity (PSR sort gate)” value is listed as “high polyreactivity”.

With “QVQLVESGGGLVQAGGSLRLSCAASGFTFVYYVMGWYRQAPGKERELVAAINAGGGSTYYADSVKGRFTISRDNAKNTVYLQMISLKPEDTSVYYCNARVRVRLGRNWSSYYYWGQGTQVTVSS”, the “polyreactivity (PSR sort gate)” value is listed as “high polyreactivity”.

“QVQLVESGGGLVQAGGSLRLSCAASGSIFRIYAMGWYRQAPGKERELVAAISWSGGSTYYADSVKGRFTISRDNANNTVYLQMNSRKPEDTAVYYCAARPRYKYSAYEYWGQGTQVTVSS”: the “polyreactivity (PSR sort gate)” value is “high polyreactivity”.

Turning to “QVQLLESGGGLFQAGGSLRLSCAASGYTFSRNAMGWYRTAPGKERELVAANTGSGGSTYYADSVKGRFTISRDNAQNTVYYQMNSLKPEDTAVYYCATEVKRGYVGFDYWGQGTQVTVSS”, the “polyreactivity (PSR sort gate)” value is recorded as “low polyreactivity”.

As for “QVQLVESGGGLVQAGASLRLSCAASGRIFRYNAMGWYRQAPGKERELVAAISSGGSRNYADSVKGRFTTSRDNSKNTVYLQMNSLKPEDTAVYYCNAESVHRYPGWGYDYWGHGTQVTVSS”, the “polyreactivity (PSR sort gate)” value is given as “low polyreactivity”.

With “QVQLVESGGGLVQAGGSLRLSCAASGFIFPAYVMGWYRQAPGKERELVAAISRRGGSTYYADSVKGRFTISRDNAKNTVYLQMNRLKPEDTSVYYCAAVFKAGSAYDYWGQGTQVTVSS”, the “polyreactivity (PSR sort gate)” value is reported as “high polyreactivity”.

Turning to “QGQLVESGGGLVQAGGILRLRCAACGSTILVYAMGWYRHAPGQERELVAFIDNGGDTYYADSVKGRFTISRDNAKNTVYLQMYSLKPEDTEVYYCADDLSYLGYWEYDYWGQGTQVTVSS”, the “polyreactivity (PSR sort gate)” value is reported as “low polyreactivity”.

Consider “QVQLVETGGGLVQSGGSLRLSCAASGSTFTYYAMGWYRQAPGKERELVAAIDFSGTSTYYADSVKGRFTISRDNAKNTVYLQMNCLKPEDTAVYFCAASQSLYWGGAHDNGEFGYWGQGTQVTVSS”, for which the “polyreactivity (PSR sort gate)” value was “low polyreactivity”.

Regarding “QVQLVESGGGLVQAGGSLRLSCAASGSTFYNYAMGWYRQAPGKERELVAAIRNGGGTNYADSVKGRFTISRDNAKITVYLQMNSLKPEDTAVYYCNKAYGVSGPGVDYWGQGTQVTVSS”, the “polyreactivity (PSR sort gate)” value is given as “low polyreactivity”.

Consider “QVQLVESGGCLVQAGGSLRLSCAASGRIFYDNVMGLYRQAPGKEREFVAAISRRGGSTDYADSVKGRFTISRDNAKNTVYLQMNSLKPEDTAVYYCADDAPGADFDYWGQGTQVTVSS”, for which the “polyreactivity (PSR sort gate)” value is “low polyreactivity”.

“QVQLVESGGGLVQAGGSLRLSCAASGRLFKDNAMGGYRQAPGKERELVATIDSGGDTNYADSVKGRFTISRDNAKNTVYLQMNSLKPEDTAVYYCNTAGRGGIPSGFDYWGQGTQVTVSS”: the “polyreactivity (PSR sort gate)” value is reported as “low polyreactivity”.

On to “QVQLVESGGGLVQAGGSLRLSCAASGSFINRYAMGWYRQAPGKERELVAAITQSGGRTYYADSVKGRFTISRDNAKNTVYLQMNSLKPEDTAVYYCNAVRWYLYDYWGQGTQVTVSS”, for which the “polyreactivity (PSR sort gate)” value is recorded as “high polyreactivity”.

Take “QVQLVESGGGLVQAGGSLGLSCAASGFIFDAYAMGWYRQAPGKERELVAGISIGGRTNYADSVKGRFTISRDNAKNTVYLQMNSLKPEDTAVYYCAARNYRYYYGSYYRGPITNYEYWGQGTQVTVSS”: the “polyreactivity (PSR sort gate)” value is on record as “low polyreactivity”.

Take “QVQLVESGGGLVQAGGSLRLSCAASGRIFSYYAMGWYRQAPGKEREMVAAISGNGGSTYYADSVKGRFTISRDNAKNTVYLQMNSLKPEDTAVYYCAADWWSSDWAYLYPYSYDYWGQGTQVTVSS”: the “polyreactivity (PSR sort gate)” value is reported as “low polyreactivity”.

Consider “QVQLVESGGGIVQAGGSLRLSCAASGRIFFGYAMGWYRQAPGKERELVAAITSGGSTYYADSVKGRFTISRDNAKNTDYLQMYSLKTEDTAVYYCAAVRWYGSKRYGYWGQGTQVTVSS”, for which the “polyreactivity (PSR sort gate)” value is “high polyreactivity”.

In the case of “QLQLVESGGGLVQAGGRLRLTCAASGSIFFGNVMGLYIQAPGKERELVAVISWSGGTTYYADSVKGRFTISRDNAKNTVYLQMNSLKTEDTAVYYCNARYLRRGDYWGQGTQVTVSS”, the “polyreactivity (PSR sort gate)” value is given as “low polyreactivity”.

As for “QVQLVESGGGLVQAGGSLRLICAASGRIFYRYAMGWYRQAPGKERELVAAITWRGGSTYYADSVKGRFTISRDNAKNTVYLQMNSLKPEDTAVYYCAAAAYGVPWRSYLGVFKSHMDYWGQGTQVTVSS”, the “polyreactivity (PSR sort gate)” value was “high polyreactivity”.

On to “QVQLVESGGGLVQAGGSLGLSCAASGIIFGKYAMGWYRQAPGKERELVASITVDGGTTYYADSVKGLFTISRDNANNTVYLQMNSLKPEDTAVYYCATGVFAELWFDYWPYDYWGQGTQVTVSS”, for which the “polyreactivity (PSR sort gate)” value was “high polyreactivity”.

With “QVQLVESGGGLVQAGGSLRLSCAASGFIFSQYARGWYRQAPGKERELVAAISYSGGSTYYADSVKGRFTISRDNAKNTVYLQMNSLKPEDTAVYYCAVSGRSYYRSDYWGQGTQVTVSS”, the “polyreactivity (PSR sort gate)” value was “high polyreactivity”.

“QVHLVESGGGLVQAGGSLRLSCAASGFTFPHYAMGWYRQAPGKERELVAAISFSGGRTYYADSVKGRFTISRDHSKNTVYVQMNSLKPEDTAVYYCNVPYYSFRELSYYYWGQGTQVTVSS”: the “polyreactivity (PSR sort gate)” value is reported as “high polyreactivity”.

With “QVQLVESGGGLVQAGGSLRLSSAASGRIFWFNAMGWYRQAPGKEREWVATISSGDSTNYADSVKGRFTISRDNAKNTVYLQMNSLKPDDTAVYYCNARVSHVQVGFDSWGQCTQVTVSS”, the “polyreactivity (PSR sort gate)” value is listed as “low polyreactivity”.

“QVQLVESGGGLDQAGGSLRLSSAASGFTFERYPMGWDRQAPGKEREMVAAIDWRGVNTYYADSVKGRFTISRHTAKTTVYLQMNSLKPEDTAVYYCNARAYGRYYWGQGTQVTVSS”: the “polyreactivity (PSR sort gate)” value is recorded as “high polyreactivity”.

With “QVQLVESGGCLVQAGGSLRLSCAASGRIFSAYAMGWYRQAPGKESELVAAISRSGGLTYYADSVKGRFTISRDNAKNTVYLQMTSLKPEDTAVYYCAARYGSYDSRRWYYYWGQGTQVTVSS”, the “polyreactivity (PSR sort gate)” value is given as “high polyreactivity”.

With “HVQLEESGVGLVQAGGSLRVSCAASGSTFGYYRMGGYRQAPGKERELVAAISWRGGSTYYADSVKGRFTISRDNAMNTVYCQMNSLKPEDTAVYYCAAPVGNYGSIDYWGQVTQVTVSS”, the “polyreactivity (PSR sort gate)” value was “low polyreactivity”.

On to “QVQLVESGGGLVQAGGSLRLSSPDSGYIFLPYTMGWYRQAHGKERELVASITWRGTNTYYADSVKGRFTISRDNAKNTVYLQMNSLKPEDTAGYYCTKVPTYWDPNYYYWGQGTQVTVSS”, for which the “polyreactivity (PSR sort gate)” value is listed as “high polyreactivity”.

In the case of “QVQLVESGGGLVQAGGSLRLSCAASGSIFRSYAMGWYRQAPGKQREFVAAITGSGGRTYYADSVKGRFTISRDNAKNTVYLQMNCLKPEDTAVYYCAAALSRRYKSGGPYGFNYWGQGTQVTVSS”, the “polyreactivity (PSR sort gate)” value is listed as “high polyreactivity”.

With “QVHLVESGGGLVQAGGILRLSCAASGRTFRRYAMGWYRQAPGKERELVAVISGGGTYYADSVKGRFTISRDNAKNTVYLQMNSLKPEDTAVYYCNARSYQSARVRGGYWGQGTQVTVSS”, the “polyreactivity (PSR sort gate)” value was “high polyreactivity”.

Regarding “QVQLVESGGGLVQAGGSLRLSCAASGSTITYYTMGWYRQAPGKERELVAAISGSGGRTYYADSVKGRFTISRDNAKNTVYLQMNSLKPEDTAVYYCAAVYQLSRYDYWGQGTQVTVSS”, the “polyreactivity (PSR sort gate)” value is “high polyreactivity”.

As to “QVQLVESGGGLVQAGGSHRLSCAASGSIFSYYAMGWYRPAPGKERELVAAISWGDDSTYYAASVKGRFTISRDNEKNTVYLHMNSLKPEDTAVYYCAADRVGWYRTFDYWGQGSQVTVSS”, the “polyreactivity (PSR sort gate)” value is “low polyreactivity”.

On to “QVQLVESGGGLVQAGGSLRLICAASGFTFGGYAMGWYRPAPVKERELVAAINGNGGRTYSADSVKGRFTISRDKAKNTVYLQMISLKPEDTAVYYCYAAYRQHYRYYYWGQGTQVTVSS”, for which the “polyreactivity (PSR sort gate)” value is reported as “high polyreactivity”.

“QVQLVESGGGLVQAGGSLRLSCAASGSIYTYYAMGWYRQAPGKERELVAAINSGGRTNYADSVKGRFTISRDNAKNTVYLQMNSLKPEDTAVYYCAADGSVSYYTYYYWGQGTQVTVSS”: the “polyreactivity (PSR sort gate)” value is reported as “low polyreactivity”.

On to “QVQLVETRGGLVQAGGSLRLSCAASGPIIRYYDMGCYRQAPGTERELVSASNAAGTSTYYADSVKGRFTISRDNAKNTVYLQMNSLKPEDTAVYYCAAQPYYGGGCYCYTRNYKLNYWGQGTQVTVSS”, for which the “polyreactivity (PSR sort gate)” value is on record as “high polyreactivity”.

On to “QVQLVESGGGLVQAGGSLRLSCAASGRTIGVYAMGWYRQAPGKERELVAAISWSGGTTYYADSVKGRFTISRDNAKNTVYLQMNSLKPEDTAVYYCDADSYTEVDYWGQGTQVTVSS”, for which the “polyreactivity (PSR sort gate)” value is “low polyreactivity”.

Values taken from the nanobody polyreactivity screen of Harvey et al. (2022).
